B1: Papain (protein)
chain: IPEYVDWRQKGAVTPVKNQGSCGSCWAFSAVVTIEGIIKIRTGNLNEYSEQELLDCDRRSYGCNGGYPWSALQLVAQYGIHYRNTYPYEGVQRYCRSREKGPYAAKTDGVRQVQPYNEGALLYSIANQPVSVVLEAAGKDFQLYRGGIFVGPCGNKVDHAVAAVGYGPNYILIKNSWGTGWGENGYIRIKRGTGNSYGVCGLYTSSFYPVKN
B2: Caspase-8 (protein)
chain: SESQTLDKVYQMKSKPRGYCLIINNHNFAKAREKVPKLHSIRDRNGTHLDAGALTTTFEELHFEIKPHDDCTVEQIYEILKIYQLMDHSNMDCFICCILSHGDKGIIYGTDGQEAPIYELTSQFTGLKCPSLAGKPKVFFIQACQGDNYQKGIPVETDSEEQPYLEMDLSSPQTRYIPDEADFLLGMATVNNCVSYRNPAEGTWYIQSLCQSLRERCPRGDDILTILTEVNYEVSNKDDKKNMGKQMPQPTFTLRKKLVFPSD
B3: Caspase-3 (protein)
chain: SGISLDNSYKMDYPEMGLCIIINNKNFHKSTGMTSRSGTDVDAANLRETFRNLKYEVRNKNDLTREEIVELMRDVSKEDHSKRSSFVCVLLSHGEEGIIFGTNGPVDLKKITNFFRGDRCRSLTGKPKLFIIQACRGTELDCGIETDSGVDDDMACHKIPVEADFLYAYSTAPGYYSWRNSKDGSWFIQSLCAMLKQYADKLEFMHILTRVNRKVATEFESFSFDATFHAKKQIPCIVSMLTKELYFYH
B4: calpain I from porcine erythrocytes (protein)
chain: MAEEVITPVYCTGVSAQVQKLRAKELGLGRHENAIKYLGQDYEQLRAHCLQSGSLFRDEAFPPVPQSLGFKELGPNSSKTYGVKWKRPTELFSNPQFIVDGATRTDICQGALGDCWLLAAIASLTLNDTLLHRVVPHGQSFQNGYAGIFHFQLWQFGEWVDVVVDDLLPTKDGKLVFVHSAQGNEFWSALLEKAYAKVNGSYEALSGGSTSEGFEDFTGGVTEWYELRKAPSDLYSIILKALERGSLLGCSIDISSVLDMEAVTFKKLVKGHAYSVTGAKQVNYQGQMVNLIRMRNPWGEVEWTGAWSDGSSEWNGVDPYQRDQLRVRMEDGEFWMSFRDFLREFTRLEICNLTPDALKSQRVRNWNTTLYEGTWRRGSTAGGCRNYPATFWVNPQFKIRLEETDDPEDDYGGRESGCSFVLALMQKHRRRERRFGRDMETIGFAVYEVPPELVGQPVHLKRDFFLANASRARSEQFINLREVSTRFRLPPGEYVVVPSTFEPNKEGDFVLRFFSEKKAGTQELDDQVQAILPDEQVLSEEEIDENFKALFRQLAGEDMEISVRELRTILNRIISKHKDLRTKGFSLESCRSMVNLMDRDGNGKLGLVEFNILWNRIRNYLSIFRKFDLDKSGSMSAYEMRMAIESAGFKLNKKLFELIITRYSEPDLAVDFDNFVCCLVRLETMFRFFKTLDTDLDGVVTFDLFKWLQLTMFA
B5: Caspase-6 (protein)
chain: AFYKREMFDPAEKYKMDHRRRGIALIFNHERFFWHLTLPERRGTCADRDNLTRRFSDLGFEVKCFNDLKAEELLLKIHEVSTVSHADADCFVCVFLSHGEGNHIYAYDAKIEIQTLTGLFKGDKCHSLVGKPKIFIIQACRGNQHDVPVIPLDVVDNQTEKLDTNITEVDAASVYTLPAGADFLMCYSVAEGYYSHRETVNGSWYIQDLCEMLGKYGSSLEFTELLTLVNRKVSQRRVDFCKDPSAIGKKQVPCFASMLTKKLHFFPKSN
B6: schistosome legumain SmAE (Schistosoma mansoni asparaginyl endopeptidase) (protein)
chain: VSDNNKWAVLVAGSNGYPNYRHQADVCHAYHVLRSKGIKPEHIITMMYDDIAYNLMNPFPGKLFNDYNHKDWYEGVVIDYRGKNVNSKTFLKVLKGDKSAGGKVLKSGKNDDVFIYFTDHGAPGLIAFPDDELYAKEFMSTLKYLHSHKRYSKLVIYIEANESGSMFQQILPSNLSIYATTAANSTECSYSTFCGDPTITTCLADLYSYNWIVDSQTHHLTQRTLDQQYKEVKRETDLSHVQRYGDTRMGKLYVSEFQGS

Molecular target: T1, Cbz-Ala-Ala-AAsn-CH═CH-COOEt
T1 chain: AAN
In the case of B1, the “kobs/[I]” value is reported as “NI”.
In the case of B2, the “kobs/[I]” value is reported as “NI”.
For B3, the “kobs/[I]” value was “NI”.
B4 was tested, and the “kobs/[I]” value was “NI”.
With B5 the “kobs/[I]” value was “NI”.
B6 showed a kobs/[I] of 17400 M⁻¹ s⁻¹.

Molecular target: T2, Cbz-Ala-Ala-AAsn-CH═CH-CON(Bzl)2
T2 chain: AAN
With B1 the kobs/[I] was 1 M⁻¹ s⁻¹.
B2 was tested, and the “kobs/[I]” value was “NI”.
In the case of B3, the “kobs/[I]” value is reported as “NI”.
With B4 the “kobs/[I]” value was “NI”.
For B5, the “kobs/[I]” value was “NI”.
Work on B6 yielded a kobs/[I] of 5800 M⁻¹ s⁻¹.

Molecular target: T3, Cbz-Ala-Ala-AAsn-CH═CH-CONHCH2CH2Ph
T3 chain: AAN
B1 showed a kobs/[I] of 12 M⁻¹ s⁻¹.
B2 was tested, and the “kobs/[I]” value was “NI”.
With B3 the “kobs/[I]” value was “NI”.
For B4, the “kobs/[I]” value was “NI”.
For B5, the “kobs/[I]” value was “NI”.

Molecular target: T4, Cbz-Ala-Ala-AAsn-CH═CH-CON(Bzl)-1-CH2-Napth
T4 chain: AAN
B6 showed a kobs/[I] of 6180 M⁻¹ s⁻¹.

Molecular target: T5, PhPr-Leu-AOrn-CH═CH-COOEt
T5 chain: LX
With B1 the “kobs/[I]” value was “NI”.
With B2 the “kobs/[I]” value was “NI”.
B3 was tested, and the “kobs/[I]” value was “NI”.
For B4, the “kobs/[I]” value was “NI”.
With B5 the “kobs/[I]” value was “NI”.

Molecular target: T6, PhPr-Leu-ALys-CH═CH-COOEt
T6 chain: LK
For B1, the “kobs/[I]” value was “NI”.
B2 was tested, and the “kobs/[I]” value was “NI”.
B3 was tested, and the “kobs/[I]” value was “NI”.
In the case of B4, the “kobs/[I]” value is reported as “NI”.
In the case of B5, the “kobs/[I]” value is reported as “NI”.

Molecular target: T7, Cbz-Ala-Ala-AAsn-CH═CH-CON(CH3)Bzl
T7 chain: AAN
B1 was tested, and the “kobs/[I]” value was “NI”.
B2 was tested, and the “kobs/[I]” value was “NI”.
For B3, the “kobs/[I]” value was “NI”.
With B4 the “kobs/[I]” value was “NI”.
For B5, the “kobs/[I]” value was “NI”.

Molecular target: T8, Cbz-Ala-Ala-AAsn-CH═CH-CO-indoline
T8 chain: AAN
In the case of B1, the “kobs/[I]” value is reported as “NI”.
In the case of B2, the “kobs/[I]” value is reported as “NI”.
With B3 the “kobs/[I]” value was “NI”.
For B4, the “kobs/[I]” value was “NI”.
For B5, the “kobs/[I]” value was “NI”.

Molecular target: T9, Cbz-Ala-Ala-AAsn-CH═CH-CON(Bzl)-2-CH2-Napth
T9 chain: AAN
B6 gave a kobs/[I] of 6100 M⁻¹ s⁻¹.

— patent US20050256058
